Measured values published in the Immune Epitope Database (IEDB).

Legend:
HLA-B*18:01 = test: IEDB peptide-MHC binding, purified MHC/competitive/radioactivity; filed as Kd, often an IC50 or EC50 that approximates it; ≥ and ≤ were set here for values at or beyond the usual limits of such assays
HLA-B*40:01 = test: as above
HLA-B*40:02 = test: as above
HLA-B*44:02 = test: as above
HLA-B*44:03 = test: as above
HLA-B*45:01 = test: as above
HLA-A*02:01 [1] = test: as above
HLA-A*02:06 = test: as above
HLA-A*68:02 = test: as above
HLA-A*02:02 = test: as above
HLA-A*02:03 = test: as above
HLA-B*07:02 [2] = test: as above
HLA-B*35:01 = test: as above
HLA-B*51:01 = test: as above
HLA-B*53:01 = test: as above
HLA-B*54:01 = test: as above
HLA-A*30:01 = test: as above; settings: source organism: Dengue virus 3 Martinique/1243/1999
HLA-A*02:01 [3] = test: IEDB peptide-MHC binding, purified MHC/direct/fluorescence; filed as Kd, often an IC50 or EC50 that approximates it; ≥ and ≤ were set here for values at or beyond the usual limits of such assays; settings: source organism: SARS-CoV1
HLA-A*69:01 = test: as above; settings: source organism: SARS-CoV1
HLA-B*07:02 [4] = test: as above; settings: source organism: SARS-CoV1
[5] = source organism: SARS coronavirus Tor2
[6] = source organism: Lymphocytic choriomeningitis virus (strain WE)
[7] = source organism: Mammarenavirus choriomeningitidis
[8] = source organism: Mammarenavirus mopeiaense
[9] = source organism: Hepacivirus hominis
[10] = source organism: Vaccinia virus WR
[11] = source organism: Triticum aestivum
[12] = source organism: Dengue virus 4 Philippines/H241/1956

NEYRQYLDAY showed a Kd (HLA-B*18:01; [5]) of 253 nM, a Kd (HLA-B*40:01; [5]) of no less than 21900 nM and a Kd (HLA-B*40:02; [5]) of 632 nM. For the same sequence, the Kd (HLA-B*44:02; [5]) was 1990 nM, the Kd (HLA-B*44:03; [5]) was 83.2 nM and the Kd (HLA-B*45:01; [5]) was 4930 nM.
With YEGNSPFHPL the Kd (HLA-B*18:01; [5]) was 12300 nM, the Kd (HLA-B*40:01; [5]) was 46.2 nM and the Kd (HLA-B*40:02; [5]) was 12.2 nM. The Kd (HLA-B*44:02; [5]) was 8100 nM, the Kd (HLA-B*44:03; [5]) was 16800 nM and the Kd (HLA-B*45:01; [5]) was no less than 42700 nM.
KEPVESCPL showed a Kd (HLA-B*18:01; [6]) of no less than 77500 nM, a Kd (HLA-B*40:01; [6]) of 1920 nM and a Kd (HLA-B*40:02; [6]) of 155 nM. The Kd (HLA-B*44:02; [6]) was no less than 77900 nM, the Kd (HLA-B*44:03; [6]) was no less than 78100 nM and the Kd (HLA-B*45:01; [6]) was no less than 58400 nM.
AEQLMSLAA gave a Kd (HLA-B*18:01; [7]) of 3640 nM, a Kd (HLA-B*40:01; [7]) of 1850 nM and a Kd (HLA-B*40:02; [7]) of 3.31 nM. For the same sequence, the Kd (HLA-B*44:02; [7]) was 214 nM, the Kd (HLA-B*44:03; [7]) was 4480 nM and the Kd (HLA-B*45:01; [7]) was 1.7 nM.
TLENERGEL showed a Kd (HLA-A*02:01 [1]; source organism: Homo sapiens) of no less than 28600 nM, a Kd (HLA-A*02:06; source organism: Homo sapiens) of no less than 45600 nM and a Kd (HLA-A*68:02; source organism: Homo sapiens) of no less than 21500 nM.
PELLNNQFGT showed a Kd (HLA-B*18:01; [8]) of 16200 nM, a Kd (HLA-B*40:01; [8]) of no less than 69500 nM and a Kd (HLA-B*40:02; [8]) of no less than 27200 nM. The Kd (HLA-B*44:02; [8]) was no less than 70200 nM, the Kd (HLA-B*44:03; [8]) was no less than 69700 nM and the Kd (HLA-B*45:01; [8]) was no less than 70000 nM.
In the case of MAVGIVSILL, the Kd (HLA-A*68:02; source organism: Dengue virus 1 Singapore/S275/1990) is reported as 5.58 nM.
Work on KLRGMGFNAV yielded a Kd (HLA-A*02:01 [1]; [9]) of 454 nM, a Kd (HLA-A*02:02; [9]) of 161 nM and a Kd (HLA-A*02:03; [9]) of 2.05 nM. The Kd (HLA-A*02:06; [9]) was 496 nM and the Kd (HLA-A*68:02; [9]) was no less than 40600 nM.
In the case of AEVQIDRLI, the Kd (HLA-B*18:01; [5]) is reported as no less than 77500 nM, the Kd (HLA-B*40:01; [5]) is reported as 10900 nM and the Kd (HLA-B*40:02; [5]) is reported as 92.4 nM. The Kd (HLA-B*44:02; [5]) was 90.1 nM, the Kd (HLA-B*44:03; [5]) was 94 nM and the Kd (HLA-B*45:01; [5]) was 985 nM.
Sequence APGSPTNLEF has a Kd (HLA-B*07:02 [2]; [10]) of 54.2 nM, a Kd (HLA-B*35:01; [10]) of 850 nM and a Kd (HLA-B*51:01; [10]) of no less than 69600 nM. For the same sequence, the Kd (HLA-B*53:01; [10]) was 556 nM and the Kd (HLA-B*54:01; [10]) was no less than 39400 nM.
IPPYCTIAPV was tested, and the Kd (HLA-B*07:02 [2]; [11]) was 940 nM, the Kd (HLA-B*35:01; [11]) was no less than 30400 nM and the Kd (HLA-B*51:01; [11]) was no less than 30000 nM. For the same sequence, the Kd (HLA-B*53:01; [11]) was no less than 69900 nM and the Kd (HLA-B*54:01; [11]) was 90.5 nM.
Sequence IPKFKVTGSY has a Kd (HLA-B*07:02 [2]; [10]) of 6600 nM, a Kd (HLA-B*35:01; [10]) of 1230 nM and a Kd (HLA-B*51:01; [10]) of no less than 69600 nM. The Kd (HLA-B*53:01; [10]) was no less than 69900 nM and the Kd (HLA-B*54:01; [10]) was no less than 58200 nM.
Work on VEFLKDAWEI yielded a Kd (HLA-B*18:01; [5]) of 3720 nM, a Kd (HLA-B*40:01; [5]) of 965 nM and a Kd (HLA-B*40:02; [5]) of 77.4 nM. For the same sequence, the Kd (HLA-B*44:02; [5]) was 641 nM, the Kd (HLA-B*44:03; [5]) was 614 nM and the Kd (HLA-B*45:01; [5]) was 4000 nM.
DLENRCQSL was tested, and the Kd (HLA-A*02:02; source organism: Homo sapiens) was 12400 nM, the Kd (HLA-A*02:03; source organism: Homo sapiens) was no less than 32800 nM and the Kd (HLA-A*02:06; source organism: Homo sapiens) was no less than 78700 nM. For the same sequence, the Kd (HLA-A*68:02; source organism: Homo sapiens) was no less than 107000 nM.
With MVHQIFGSA the Kd (HLA-A*30:01) was 29.6 nM and the Kd (HLA-A*68:02; source organism: Dengue virus 3 Martinique/1243/1999) was 16.7 nM.
LSMGLIAIAV gave a Kd (HLA-A*02:06; [12]) of 5.23 nM and a Kd (HLA-A*68:02; [12]) of 588 nM.
In the case of KPNTWCLRCL, the Kd (HLA-B*07:02 [2]; [5]) is reported as 339 nM, the Kd (HLA-B*35:01; [5]) is reported as no less than 69900 nM and the Kd (HLA-B*51:01; [5]) is reported as no less than 69600 nM. It also gave a Kd (HLA-B*53:01; [5]) of 2440 nM and a Kd (HLA-B*54:01; [5]) of no less than 31100 nM.
MPASWVMRI gave a Kd (HLA-A*02:01 [3]) of 8190 nM, a Kd (HLA-A*69:01) of 17 nM and a Kd (HLA-B*07:02 [4]) of 508 nM. It also gave a Kd (HLA-B*35:01; [5]) of 206 nM, a Kd (HLA-B*51:01; [5]) of 67.1 nM and a Kd (HLA-B*53:01; [5]) of 1.24 nM. The Kd (HLA-B*54:01; [5]) was 32 nM.
In the case of SEYDYVIFT, the Kd (HLA-B*18:01; [5]) is reported as 3270 nM, the Kd (HLA-B*40:01; [5]) is reported as 998 nM and the Kd (HLA-B*40:02; [5]) is reported as 34 nM. The Kd (HLA-B*44:02; [5]) was 125 nM, the Kd (HLA-B*44:03; [5]) was 25.1 nM and the Kd (HLA-B*45:01; [5]) was 11.4 nM.
In the case of EPISILDRI, the Kd (HLA-B*07:02 [2]; [10]) is reported as no less than 28800 nM, the Kd (HLA-B*35:01; [10]) is reported as 4810 nM and the Kd (HLA-B*51:01; [10]) is reported as 37.3 nM. It also gave a Kd (HLA-B*53:01; [10]) of 194 nM and a Kd (HLA-B*54:01; [10]) of 820 nM.
With RERVNINIVG the Kd (HLA-B*18:01; [5]) was no less than 70500 nM, the Kd (HLA-B*40:01; [5]) was 4910 nM and the Kd (HLA-B*40:02; [5]) was 143 nM. The Kd (HLA-B*44:02; [5]) was 7900 nM, the Kd (HLA-B*44:03; [5]) was 6740 nM and the Kd (HLA-B*45:01; [5]) was 1630 nM.
TPNYMKLLVY gave a Kd (HLA-B*07:02 [2]; [10]) of no less than 47800 nM, a Kd (HLA-B*35:01; [10]) of 48.1 nM and a Kd (HLA-B*51:01; [10]) of no less than 28600 nM. The Kd (HLA-B*53:01; [10]) was 952 nM and the Kd (HLA-B*54:01; [10]) was 14600 nM.
For ITVSGLYPL, the Kd (HLA-A*68:02; [12]) was 12.3 nM.
KLKNKHEAMI gave a Kd (HLA-A*02:06; source organism: Homo sapiens) of no less than 50300 nM and a Kd (HLA-A*68:02; source organism: Homo sapiens) of 10300 nM.
